The results in this text go back to PMC7969032, “Tandem RNA binding sites induce self-association of the stress granule marker protein TIA-1”.

Data set [1] deals with T1, TIA-1 full length (short isoform, p40) (human, UniProt P31483-2 1-375).
T1 sequence: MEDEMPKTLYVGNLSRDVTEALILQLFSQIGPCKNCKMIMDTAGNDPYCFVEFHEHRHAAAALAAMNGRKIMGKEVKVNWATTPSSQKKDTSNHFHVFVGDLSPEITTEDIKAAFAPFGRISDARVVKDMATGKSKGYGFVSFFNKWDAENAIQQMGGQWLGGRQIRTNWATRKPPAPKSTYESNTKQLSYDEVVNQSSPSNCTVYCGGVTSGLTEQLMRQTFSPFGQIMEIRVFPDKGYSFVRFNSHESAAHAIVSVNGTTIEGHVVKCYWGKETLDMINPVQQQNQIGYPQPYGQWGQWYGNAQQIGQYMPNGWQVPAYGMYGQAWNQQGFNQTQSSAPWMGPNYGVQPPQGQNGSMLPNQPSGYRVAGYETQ
Nature of the data set: co-sedimentation with condensed phase (PAGE); 4:1 TIA-1:TC site, 10 uM TIA-1; FA: 1 nM Fl-TC1; RRM23 in 10 mM HEPES pH 7.2, 50 mM NaCl, 1 mM DTT (legend: 20 mM HEPES); full-length TIA-1 in 20 mM sodium phosphate, 60 mM KCl, 0.5 M arginine-HCl, 1 mM MgCl2, 2 mM DTT, 0.5 mM EDTA, pH 7; Csat at room temperature. The note with it: protein: recombinant; tags: His-tag removed by TEV (untagged).

Data set [2] addresses T1, TIA-1 full length (short isoform, p40). Kind of data set: SAXS; 500 mM arginine; SASDJL5; FA: 1 nM Fl-TC1; RRM23 in 10 mM HEPES pH 7.2, 50 mM NaCl, 1 mM DTT (legend: 20 mM HEPES); full-length TIA-1 in 20 mM sodium phosphate, 60 mM KCl, 0.5 M arginine-HCl, 1 mM MgCl2, 2 mM DTT, 0.5 mM EDTA, pH 7; Csat at room temperature. The note with it: protein: recombinant; tags: His-tag removed by TEV (untagged).

Data set [3] shares this target. Kind of data set: fluorescence anisotropy; 0.5 M arginine-HCl, 60 mM KCl, 1 mM MgCl2; KD not in text; FA: 1 nM Fl-TC1; RRM23 in 10 mM HEPES pH 7.2, 50 mM NaCl, 1 mM DTT (legend: 20 mM HEPES); full-length TIA-1 in 20 mM sodium phosphate, 60 mM KCl, 0.5 M arginine-HCl, 1 mM MgCl2, 2 mM DTT, 0.5 mM EDTA, pH 7; Csat at room temperature. The note with it: protein: recombinant; tags: His-tag removed by TEV (untagged); label: 5'-fluorescein. Background: Fluorescence polarisation rises when a labelled molecule tumbles more slowly, as on binding a larger partner.

Data set [4] has the same target. Kind of data set: SAXS; 500 mM arginine; SASDJK5; FA: 1 nM Fl-TC1; RRM23 in 10 mM HEPES pH 7.2, 50 mM NaCl, 1 mM DTT (legend: 20 mM HEPES); full-length TIA-1 in 20 mM sodium phosphate, 60 mM KCl, 0.5 M arginine-HCl, 1 mM MgCl2, 2 mM DTT, 0.5 mM EDTA, pH 7; Csat at room temperature. The note with it: protein: recombinant; tags: His-tag removed by TEV (untagged).

B1: TC5 (ssDNA)
DNA: TTTTTACTCCAATTTTTACTCCAATTTTTACTCCAATTTTTACTCCAATTTTTACTCC
For the molecule B1, the binding result in data set [1] is given as “binds”. With UUUUUACUCC (ssRNA) [UC1], the binding result in data set [2] is recorded as “binds”.

B2: TC9 (ssDNA)
DNA: TTTTTACTCCAATTTTTACTCCAATTTTTACTCCAATTTTTACTCCAATTTTTACTCCAATTTTTACTCCAATTTTTACTCCAATTTTTACTCCAATTTTTACTCC
With B2, the binding result in data set [1] is “binds”.

B3: TC7 (ssDNA)
DNA: TTTTTACTCCAATTTTTACTCCAATTTTTACTCCAATTTTTACTCCAATTTTTACTCCAATTTTTACTCCAATTTTTACTCC
Take B3: the binding result in data set [1] is listed as “binds”. Regarding TTTTTACTCC (ssDNA) [TC1 (5'-fluorescein)], in data set [3], the binding result is recorded as “binds”.

On to TTTTTACTCCAATTTTTACTCCAATTTTTACTCC (ssDNA) [TC3], for which, in data set [1], the binding result is “binds”.

Regarding TTTTTACTCCAATTTTTACTCC (ssDNA) [TC2], in data set [1], the binding result is given as “binds”. Take TTTTTACTCC (ssDNA) [TC1]: the binding result in data set [4] is reported as “binds”.
